Measured values as given in patent US20180037644A1 (Pfizer, published 2018).
Where a chain is given by its changes, count along the chain named. Like-named read-outs stand apart in the source and are kept apart here. One block for each binder: values may come before it.

Assays:
Assay in all cases: cell-based or functional assay
[1] = target: T1, human IL-33 (mm2) (human, UniProt O95760 112-270)
T1 chain: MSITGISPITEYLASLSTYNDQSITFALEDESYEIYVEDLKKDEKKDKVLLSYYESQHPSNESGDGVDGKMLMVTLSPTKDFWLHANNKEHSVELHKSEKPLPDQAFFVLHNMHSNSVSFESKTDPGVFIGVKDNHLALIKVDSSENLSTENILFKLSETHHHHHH

[2] = target: T2, cynomolgus monkey IL-33 (cys mut) (cynomolgus monkey)
T2 chain: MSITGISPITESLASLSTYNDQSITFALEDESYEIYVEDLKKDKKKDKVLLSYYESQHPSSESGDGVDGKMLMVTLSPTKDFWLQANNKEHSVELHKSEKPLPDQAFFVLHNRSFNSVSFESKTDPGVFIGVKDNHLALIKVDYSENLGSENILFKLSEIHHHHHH

[3] = target: T2, cynomolgus monkey IL-33 (cys mut)
[4] = target: T1, human IL-33 (mm2)
[5] = target: T3, native human IL-33 from human lung fibroblast (HFL-1) lysate (human, UniProt O95760 1-270, limits assumed)
T3 sequence (looked up): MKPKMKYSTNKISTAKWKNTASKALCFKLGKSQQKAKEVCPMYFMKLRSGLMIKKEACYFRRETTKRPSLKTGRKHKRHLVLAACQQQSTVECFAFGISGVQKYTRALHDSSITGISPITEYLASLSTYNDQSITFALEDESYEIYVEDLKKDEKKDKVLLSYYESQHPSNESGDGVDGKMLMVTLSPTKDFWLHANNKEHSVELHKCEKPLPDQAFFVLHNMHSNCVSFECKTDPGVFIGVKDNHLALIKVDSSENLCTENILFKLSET

[6] = target: T4, human IL-33 WT (R&D) (human, UniProt O95760 112-270)
T4 sequence: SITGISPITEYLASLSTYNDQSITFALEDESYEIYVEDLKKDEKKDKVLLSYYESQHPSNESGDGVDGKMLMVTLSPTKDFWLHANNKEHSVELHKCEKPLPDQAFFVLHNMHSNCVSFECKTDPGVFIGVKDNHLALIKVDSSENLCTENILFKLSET

[7] = target: T1, human IL-33 (mm2)
[8] = target: T2, cynomolgus monkey IL-33 (cys mut)
[9] = target: T1, human IL-33 (mm2)
[10] = target: T1, human IL-33 (mm2)
[11] = target: T4, human IL-33 WT (R&D); remark: listed apart in the source
[12] = target: T1, human IL-33 (mm2)
[13] = target: T4, human IL-33 WT (R&D); remark: listed apart in the source
[14] = target: T2, cynomolgus monkey IL-33 (cys mut)
[15] = target: T1, human IL-33 (mm2)
[16] = target: T5, wild-type cynomolgus monkey IL-33 (cynomolgus monkey)
T5 chain: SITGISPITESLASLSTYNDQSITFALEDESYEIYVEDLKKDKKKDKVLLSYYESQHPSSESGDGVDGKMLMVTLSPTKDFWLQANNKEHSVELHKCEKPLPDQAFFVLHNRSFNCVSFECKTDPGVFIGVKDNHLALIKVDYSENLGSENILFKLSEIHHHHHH

B1: rat 30A1 (30A1 hybridoma) (antibody, V domains shown)
VH: QVNLLQSGATLVKPGASMKMSCKASGYSFTDYWVSWVKQSHGKSLEWIGEIYPNSGANNFNKEFKDKATLTVDKSTSTAYMELTRLTSEDSAVYYCTRGPYYYSSQIIFAYWGQGTLVTVSS
VL: IIVMTQSPKSMSISVGDRVTMNCKASQNVGNNIAWYRQKPGQSPELLIYYASNRYTGVPDRFTGGGYGTDFTLTINSVQAEDAAFYYCQRIYNSPPTFGGGTKVELK
IC50, HEK293 ST2 NFkB [1]: 0.665 nM
IC50, HEK293 ST2 NFkB [2]: 2.95 nM
IC50, HEK293 ST2 NFkB [3]: 0.14 nM
IC50, HEK293 ST2 NFkB [4]: 0.47 nM
% inhibition 0.1 nM Ab, HEK293 ST2 NFkB [5]: 35.4%
% inhibition 1 nM Ab, HEK293 ST2 NFkB [5]: 77.3%
% inhibition 10 nM Ab, HEK293 ST2 NFkB [5]: 108%

B5: IL33-55 (antibody, human IgG1, kappa, V domains shown)
VH: EVQLVESGGGLVQPGGSLRLSCAASGFTFSSYWMYWVRQAPGKGLEWVASITPNGGDTYYPDSVKGRFTISRDNAKNSLYLQMNSLRAEDTAVYYCARGHYYYTSYSLGYWGQGTLVTVSS
VL: DIQMTQSPSSLSASVGDRVTITCKASQNINKHLDWYQQKPGKAPKLLIYFTNNLQTGVPSRFSGSGSGTDFTLTISSLQPEDFATYYCFQYNNGWTFGGGTKVEIKR
IC50, HEK293 ST2 NFkB [8]: 0.19 nM
IC50, HEK293 ST2 NFkB [9]: 0.084 nM

B7: IL33-68 (antibody, human IgG1, kappa, V domains shown)
VH: B5 VH with D57N, S105A
VL: B5 VL
IC50, HEK293 ST2 NFkB [8]: 0.062 nM
IC50, HEK293 ST2 NFkB [9]: 0.046 nM

B8: IL33-136 (antibody, human IgG1, kappa, V domains shown)
VH: B5 VH with D57E
VL: B5 VL with N93Q
IC50, HEK293 ST2 NFkB WT IL-33 [11]: 0.037 nM
IC50, whole blood IFNγ [12]: 0.098 nM

B11: rat 7E8 (7E8 hybridoma) (antibody, V domains shown)
VH: EVQLVETGGGLVQPGRSLKLSCKTSGFTFSSYWMYWIRQAPGKGLEWVSSITPNGGNTYYPDSVKGRFTISRDNAENTIYLQMSSLRSEDTATYFCAKGHYYYTSYSLGYWGQGSLVTVSS
VL: EIQMTQSPSVLSASVGDRVTLSCKASQNINKHLDWYQQKLGEAPKLLIYFTNNLQTGIPSRFSGSGSGTDCTLTINSLQPGDVATYFCFQYNNGWTFGGGTKLELD
IC50, HEK293 ST2 NFkB [1]: 0.018 nM
IC50, HEK293 ST2 NFkB [2]: 0.21 nM
IC50, HEK293 ST2 NFkB [10]: 0.024 nM
IC50, HEK293 ST2 NFkB [3]: 0.032 nM
IC50, HEK293 ST2 NFkB [4]: 0.043 nM
% inhibition 0.1 nM Ab, HEK293 ST2 NFkB [5]: 112%
% inhibition 1 nM Ab, HEK293 ST2 NFkB [5]: 110%
% inhibition 10 nM Ab, HEK293 ST2 NFkB [5]: 113%

B14: 30B11 CDR graft_R71V (antibody, human IgG1, kappa, V domains shown)
VH: EVQLVESGGGLVQPGGSLRLSCAASGFTFTDYWVSWVRQAPGKGLEWVAEIYPNSGADNFNENFKGRFTISVDNAKNSLYLQMNSLRAEDTAVYYCARGPYYYSTQIIFAYWGQGTLVTVSS
VL: DIQMTQSPSSLSASVGDRVTITCKASQNVGNNLAWYQQKPGKAPKLLIYYASNRYTGVPSRFSGSGSGTDFTLTISSLQPEDFATYYCQRIYNSPPTFGGGTKVEIKR
IC50, HEK293 ST2 NFkB [10]: 0.278 nM

Now from value to binder:

IC50, HEK293 ST2 NFkB [1]: 0.056 nM
IC50, HEK293 ST2 NFkB [2]: 0.2 nM
IC50, HEK293 ST2 NFkB [3]: 0.084 nM
IC50, HEK293 ST2 NFkB [4]: 0.038 nM
% inhibition 0.1 nM Ab, HEK293 ST2 NFkB [5]: 93.5%
% inhibition 1 nM Ab, HEK293 ST2 NFkB [5]: 108%
% inhibition 10 nM Ab, HEK293 ST2 NFkB [5]: 113%
B2: rat 30B11 (30B11 hybridoma) (antibody, V domains shown)
VH: QVKLLQSGAALVKPGASVKMSCATSGFSFTDYWVSWVKQSHGKGLEWIGEIYPNSGADNFNENFKGKATLTVDKSTSTAYMELSRLTSEDSAIYYCTRGPYYYSTQIIFAYWGQGTLVTVSS
VL: B1 VL with I1N, I33L, R37Q, E45K, K107R

IC50, HEK293 ST2 NFkB [6]: 0.62 nM
IC50, HEK293 ST2 NFkB [7]: 0.095 nM
B3: IL33-158-152 (antibody, human IgG1, kappa)
heavy: EVQLVESGGGLVQPGGSLRLSCAASGFTFSSYWMYWVRQAPGKGLEWVAAITPNAGEDYYPESVKGRFTISRDNAKNSLYLQMNSLRAEDTAVYYCARGHYYYTSYSLGYWGQGTLVTVSSASTKGPSVFPLAPSSKSTSGGTAALGCLVKDYFPEPVTVSWNSGALTSGVHTFPAVLQSSGLYSLSSVVTVPSSSLGTQTYICNVNHKPSNTKVDKKVEPKSCDKTHTCPPCPAPEAAGAPSVFLFPPKPKDTLMISRTPEVTCVVVDVSHEDPEVKFNWYVDGVEVHNAKTKPREEQYNSTYRVVSVLTVLHQDWLNGKEYKCKVSNKALPAPIEKTISKAKGQPREPQVYTLPPSREEMTKNQVSLTCLVKGFYPSDIAVEWESNGQPENNYKTTPPVLDSDGSFFLYSKLTVDKSRWQQGNVFSCSVMHEALHNHYTQKSLSLSPG
light: DIQMTQSPSSLSASVGDRVTITCKASQNINKHLDWYQQKPGKAPKLLIYFTNNLQTGVPSRFSGSGSGTDFTLTISSLQPEDFATYYCFQYNQGWTFGGGTKVEIKRTVAAPSVFIFPPSDEQLKSGTASVVCLLNNFYPREAKVQWKVDNALQSGNSQESVTEQDSKDSTYSLSSTLTLSKADYEKHKVYACEVTHQGLSSPVTKSFNRGEC

IC50, HEK293 ST2 NFkB [6]: 0.749 nM
IC50, HEK293 ST2 NFkB [7]: 0.129 nM
B4: IL33-167-153 (antibody, human IgG1, kappa)
heavy: B3 heavy with A50S, E62D
light: B3 light with Q93N

IC50, HEK293 ST2 NFkB [10]: 0.52 nM
B6: 9B3 CDR graft (antibody, human IgG1, kappa, V domains shown)
VH: B5 VH with S31N, T52N, P53N, N54D, D57N, P61L, Y102S, T104S, L108F, G109S
VL: B5 VL with Q27H, N93S

IC50, HEK293 ST2 NFkB [8]: 0.104 nM
IC50, HEK293 ST2 NFkB [9]: 0.053 nM
B9: IL33-56 (antibody, human IgG1, kappa, V domains shown)
VH: B5 VH with D57E
VL: B5 VL

IC50, HEK293 ST2 NFkB (DTT-pretreated IL-33) [13]: 0.05 nM
Cynomolgus monkey:human IC50 ratio: cysteine mutant IL-33 [14]: 109
IC50, HEK293 ST2 NFkB [14]: 1.56 nM
IC50, HEK293 ST2 NFkB [15]: 0.014 nM
Cynomolgus monkey:human IC50 ratio: wild-type IL-33 [16]: 256
IC50, HEK293 ST2 NFkB (DTT-pretreated IL-33) [16]: 12.7 nM
B10: IL33-265 (antibody, human IgG1, kappa, V domains shown)
VH: EVQLVESGGNLEQPGGSLRLSCTASGFTFSRSAMNWVRRAPGKGLEWVSGISGSGGRTYYADSVKGRFTISRDNSKNTLYLQMNSLSAEDTAAYYCAKDSYTTSWYGGMDVWGHGTTVTVSS
VL: DIQMTQSPSSVSASVGDRVTITCRASQGIFSWLAWYQQKPGKAPKLLIYAASSLQSGVPSRFSGSGSGTDFTLTISSLQPEDFAIYYCQQANSVPITFGQGTRLEIKR

IC50, HEK293 ST2 NFkB [1]: 0.076 nM
% inhibition at 20 nM, HEK293 ST2 NFkB [2]: 23%
IC50, HEK293 ST2 NFkB [3]: 2.72 nM
IC50, HEK293 ST2 NFkB [4]: 0.17 nM
% inhibition 0.1 nM Ab, HEK293 ST2 NFkB [5]: 55.1%
% inhibition 1 nM Ab, HEK293 ST2 NFkB [5]: 99.2%
% inhibition 10 nM Ab, HEK293 ST2 NFkB [5]: 108%
B12: rat 9B3 (9B3 hybridoma) (antibody, V domains shown)
VH: EVQLVETGGGLVQPGRSLKLSCVASGFTFSNYWMYWIRQAPGMGLEWVSSINNDGGNTYYLDSVKGRFTISRNNAENTVYLQMNSLRSEDTATYYCAKGHYSYSSYSFSYWGQGTLVTVSS
VL: B11 VL with E1D, Q27H, Y36C, L40V, C71Y, N76S, G81E, N93S, D106K

IC50, HEK293 ST2 NFkB [10]: 0.368 nM
B13: 30B11 CDR graft (antibody, human IgG1, kappa, V domains shown)
VH: B14 VH with V72R
VL: B14 VL
